Positions count from the first letter of the chain named.
B1: PRT-12 (protein)
chain: MANQEIRYSEVTPYHVTSVWTKGVTPPADFTQGEDVFHAPYKANQGWYDITKTFNGKDDLLCGAATAGNMLHWWFDQNKDQIERYLKEHPEKQKINFNGEQMFDVKEAIDTKDSQTDSKLFEYFKEKAFPYLSTKHLGVFPDHVIDMFINGYRLSLTNHGPTPVKRGSKDPRGGFFDAVFTRGDQSKLLTSRHDFKEKTLNEISDLIKKELTEGKALGLSHTYANVRINHVINLWGADFDSNGNLEAIYVTDSDSNASIGMKKYFVGVNSAGKVAISAKEIKEDNIGAQVLGLFTLSTGQDIWEQTN
B2: PRT-148 (protein)
chain: MANQEIRYSEVTPYHVTSVWTKGVTPPANFTQGEDVFHAPYVANQGWYDITKTFNGKDDLLCGAATAGNMLHWWFDQNKDQIKRYLEEHPEKQKINFNGEQMFDVKEAIDTKNHQLDSKLFEYFKEKAFPYLSTKHLGVFPDHVIDMFINGYRLSLTNHGPTPVKRQSKDPRGGIFDAVFTRGDQSKLLTSRHDFKEKNLKEISDLIKKELTEGKALGLSHTYANVRINHVINLWGADFDSNGNLKAIYVTDSDSNASIGMKKYFVGVNSAGKVAISAKEIKEDNIGAQVLGLFTLSTGQDSWNKTN
B3: PRT-149 (protein)
chain: B2 chain with S168T, T181G, S186T, D301K
B4: PRT-128 (protein)
chain: MRNATEAYAKEVPKQITSVWTKGVTPPTPEQFRYNNEDVIHAPYLANQGWYDITKTFNGKDNLLCGAATAGNMLHWWFDQNKTEIEAYLSKHPEKQKIIFNNQELFDLKAAIDTKDSQTNSQLFNYFRDKAFPNLSARQLGVMPDLVLDMFINGYYLNVFKTQSTDVNRPYQDKDKRGGIFDAVFTRGDQTTLLTARHDLKNKTLNDISTLIKQELTEGKALALSHTYANVSISHVINLWGADFNAEGNLEAIYVTDSDANASIGMKKYFVGVNAHGKVAISAKKIEGENIGAQVLGLFTLSSGKDIWQKLS
B5: PRT-129 (protein)
chain: B4 chain with K14H, P27L, I40F, T56A, N58D, T192K, T204G, K220R, V273I, K278H
B6: PRT-138 (protein)
chain: B4 chain with K14H, N47H, T56A, N58D, T204G, L211I, K220R, V273I, K278H
B7: PRT-139 (protein)
chain: B4 chain with K14H, P27L, T56A, N58D, T204G, L211I, K220R, V273I, K278H
B8: PRT-133 (protein)
chain: B4 chain with K14H, P27L, N47H, N58D, T204G, L211I, K220R, V273I, K278H
B9: PRT-137 (protein)
chain: B4 chain with K14H, P27L, N47H, T56A, N58D, T204G, L211I, K220R, V273I
B10: PRT-134 (protein)
chain: B4 chain with K14H, P27L, N47H, T56A, N58D, T204G, K220R, V273I, K278H
B11: PRT-136 (protein)
chain: B4 chain with K14H, P27L, N47H, T56A, N58D, T204G, L211I, K220R, K278H
B12: PRT-131 (protein)
chain: B4 chain with K14H, P27L, N47H, T56A, S90K, T204G, D207E, L211I, K220R, V273I
B13: PRT-135 (protein)
chain: B4 chain with K14H, P27L, N47H, T56A, N58D, T204G, L211I, V273I, K278H
B14: PRT-140 (protein)
chain: B4 chain with K14H, P27L, N47H, T56A, T204G, L211I, K220R, V273I, K278H
B15: PRT-132 (protein)
chain: B4 chain with N47H, T56A, N58D, L211I, K220R, V273I, K278H
B16: PRT-11 (protein)
chain: MANQEIRYSEETPYHVTSVWTKGVTPPANFTQGEDVFHAPYVANQGWYDITKTFNGKDDLLCGAATAGNMLHWWFDQNKDQIEKYLKEHPEKQKINFNGEQMFDVKEAIDTKDSQTDSKLFEYFKEKAFPYLSTKHLGVFPDHVIDMFINGYRLSLTNHGPTPVKEQSKDPRGGIFDAVFTRGDQSKLLTSRHDFKEKTLKEISDLIKKELSEGKALGLSHTYANVRINHVINLWGADFDSNGNLKAIYVTDSDSNASIGMKKYFVGVNSAGKVAISAKEIKEDNIGAQVLGLFTLSTGQDIWNQTN
B17: PRT-130 (protein)
chain: MRNATEAYAKEVPHQITSVWTKGVTPLTPEQFRYNNEDVIHAPYLAHQGWYDITKAFDGKDNLLCGAATAGNMLHWWFDQNKTEIEAYLSKHPEKQKIIFNNQELFDLKAAIDTKDSQTNSQLFNYFRDKAFPNLSARQLGVMPDLVLDMFINGYYLNVFKTQSTDVNRPYQDKDKRGGIFDAVFTRGDQTTLLTARHDLKNKGLNDISDIIKQELTEGRALALSHTYANVSISHVINLWGADFNAEGNLEAIYVTDSDSNASIGMKKYFVGINAAGHVAISAKKIEGENIGAQVLGLFTLSSGKDIWQKLS
B18: PRT-142 (protein)
chain: B17 chain with I40F, D210T, S260A, A276H
B19: PRT-141 (protein)
chain: B17 chain with D210T, S260A
B20: PRT-143 (protein)
chain: MANQEIRYSEVTPYHITSVWTKGVTPPANFTQGEDVFHAPYVANQGWYDITKTFNGKDDLLCGAATAGNMLHWWFDQNKDQIKRYLEEHPEKQKINFNGEQMFDVKEAIDTKNHQLDSKLFEYFKEKAFPYLSTKHLGVFPDHVIDMFINGYRLSLTNHGPTPVKEGSKDPRGGIFDAVFTRGDQSKLLTSRHDFKEKTLNEISQLIKQELTEGKALGLSHTYANVRINHVINLWGADFDAEGNLEAIYVTDSDSNASIGMKKYFVGVNSAGKVAISAKEIKEDNIGAQVLGLFTLSTGQDSWNQTN
B21: PRT-144 (protein)
chain: B20 chain with E202D, T212Q, E213S, V268K
B22: PRT-147 (protein)
chain: B20 chain with T17K, S18I, E202D, T212Q, E213S, V268K
B23: PRT-145 (protein)
chain: B20 chain with E202T, T212Q, E213S, V268K
B24: PRT-146 (protein)
chain: B20 chain with T17K, S18T, E202D, T212Q, E213S, V268K

Molecular target: pooled human IgG

Row | Protein | Enzyme Activity Endpoint Assay: Fab′2 | Enzyme Activity Endpoint Assay: Fc | Enzyme Activity Endpoint Assay: IgG | Enzyme Activity Endpoint Assay: scIgG | Enzyme Activity Endpoint Assay (purified): Fab'2 | Enzyme Activity Endpoint Assay (purified): Fc | Enzyme Activity Endpoint Assay (purified): IgG | Enzyme Activity Endpoint Assay (purified): scIgG
1 | B1 | 47 ng/µL | 122 ng/µL | 16 ng/µL | 14 ng/µL | – | – | – | –
2 | B2 | – | – | – | – | 764 ng/µL | 203 ng/µL | 0 ng/µL | 0 ng/µL
3 | B3 | – | – | – | – | 831 ng/µL | 0 ng/µL | 0 ng/µL | 0 ng/µL
4 | B4 | – | – | – | – | 560 ng/µL | 151 ng/µL | 0 ng/µL | 60 ng/µL
5 | B5 | – | – | – | – | 384 ng/µL | 169 ng/µL | 0 ng/µL | 0 ng/µL
6 | B6 | – | – | – | – | 563 ng/µL | 215 ng/µL | 0 ng/µL | 144 ng/µL
7 | B7 | – | – | – | – | 733 ng/µL | 213 ng/µL | 0 ng/µL | 0 ng/µL
8 | B8 | – | – | – | – | 774 ng/µL | 207 ng/µL | 0 ng/µL | 12 ng/µL
9 | B9 | – | – | – | – | 662 ng/µL | 198 ng/µL | 0 ng/µL | 0 ng/µL
10 | B10 | – | – | – | – | 597 ng/µL | 174 ng/µL | 0 ng/µL | 0 ng/µL
11 | B11 | – | – | – | – | 635 ng/µL | 160 ng/µL | 0 ng/µL | 0 ng/µL
12 | B12 | – | – | – | – | 745 ng/µL | 201 ng/µL | 0 ng/µL | 0 ng/µL
13 | B13 | – | – | – | – | 526 ng/µL | 140 ng/µL | 0 ng/µL | 6 ng/µL
14 | B14 | – | – | – | – | 755 ng/µL | 213 ng/µL | 0 ng/µL | 0 ng/µL
15 | B15 | – | – | – | – | 697 ng/µL | 219 ng/µL | 0 ng/µL | 0 ng/µL
16 | B16 | 40 ng/µL | 100 ng/µL | 13 ng/µL | 0 ng/µL | – | – | – | –
17 | B17 | – | – | – | – | 592 ng/µL | 192 ng/µL | 0 ng/µL | 0 ng/µL
18 | B18 | – | – | – | – | 589 ng/µL | 135 ng/µL | 0 ng/µL | 0 ng/µL
19 | B19 | – | – | – | – | 846 ng/µL | 215 ng/µL | 0 ng/µL | 0 ng/µL
20 | B20 | – | – | – | – | 576 ng/µL | 170 ng/µL | 0 ng/µL | 0 ng/µL
21 | B21 | – | – | – | – | 562 ng/µL | 151 ng/µL | 0 ng/µL | 26 ng/µL
22 | B22 | – | – | – | – | 723 ng/µL | 206 ng/µL | 0 ng/µL | 0 ng/µL
23 | B23 | – | – | – | – | 735 ng/µL | 207 ng/µL | 0 ng/µL | 0 ng/µL
24 | B24 | – | – | – | – | 672 ng/µL | 215 ng/µL | 0 ng/µL | 0 ng/µL
